Data from paper PMC9547787.

What was measured:
[1] = biological target: SUV39H2 (UniProt Q9H5I1); assay: proximity ligation assay (PLA); settings: MO3.13 cells; n: EV = 14; H3.1WT = 36; H3.1K27M = 67; H3.3WT = 60; H3.3K27M = 62; parent: est. 1.2; read off a plot
[2] = biological target: MBD3; assay: BioID (streptavidin pulldown, LC-MS/MS); settings: Flp-In T-Rex HEK293 cells; parent: est. 41; read off a plot
[3] = biological target: MBD4; assay: BioID (streptavidin pulldown, LC-MS/MS); settings: Flp-In T-Rex HEK293 cells; parent: est. 14; read off a plot
[4] = biological target: MECP2; assay: BioID (streptavidin pulldown, LC-MS/MS); settings: Flp-In T-Rex HEK293 cells; parent: est. 17; read off a plot
[5] = biological target: BAZ2A; assay: BioID (streptavidin pulldown, LC-MS/MS); settings: Flp-In T-Rex HEK293 cells; parent: est. 220; read off a plot

Sequence of UniProt Q9H5I1 (Q9H5I1 whole entry): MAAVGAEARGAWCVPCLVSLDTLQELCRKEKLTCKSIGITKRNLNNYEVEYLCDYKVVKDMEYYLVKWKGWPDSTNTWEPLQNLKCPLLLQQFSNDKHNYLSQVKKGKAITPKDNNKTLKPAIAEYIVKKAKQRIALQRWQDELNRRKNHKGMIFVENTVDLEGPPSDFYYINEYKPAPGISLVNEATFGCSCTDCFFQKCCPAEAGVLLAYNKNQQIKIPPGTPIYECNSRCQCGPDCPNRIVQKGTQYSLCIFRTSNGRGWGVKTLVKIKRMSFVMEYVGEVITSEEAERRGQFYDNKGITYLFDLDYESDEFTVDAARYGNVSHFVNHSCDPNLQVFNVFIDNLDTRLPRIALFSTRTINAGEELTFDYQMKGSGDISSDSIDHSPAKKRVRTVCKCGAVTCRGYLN

Substance | response (relative foci (relative to H3.3WT)) [1] | response (peptide count) [2] | response (peptide count) [3] | response (peptide count) [4] | response (peptide count) [5]
H3.1WT-FLAG/HA (from UniProt P68431) K27M | 0.54 | – | – | – | –
H3.3WT (FLAG-BirA* fusion, BioID bait) (from UniProt P84243) G34R | – | 23 | 13 | 4.1 | 83
